# From IntAct's records for PubMed 15637807
# B1: Caspase recruitment domain-containing protein 19 (Homo sapiens), Q96LW7 (parent)
# chain: MTDQTYCDRLVQDTPFLTGHGRLSEQQVDRIILQLNRYYPQILTNKEAEKFRNPKASLRVRLCDLLSHLQRSGERDCQEFYRALYIHAQPLHSRLPSRHALRKFHITNHACLVLARGGHPSLPLMAWMSSMTTQVCCSPGLASPLASAPPQRPPSGPEGRVWQAQAVQMLVSVSHFLPLPPSLSHGSFHTAWGILYVHSCPSFSNLIPRGSLHVCVDSNLVPTAAWRS
# partner: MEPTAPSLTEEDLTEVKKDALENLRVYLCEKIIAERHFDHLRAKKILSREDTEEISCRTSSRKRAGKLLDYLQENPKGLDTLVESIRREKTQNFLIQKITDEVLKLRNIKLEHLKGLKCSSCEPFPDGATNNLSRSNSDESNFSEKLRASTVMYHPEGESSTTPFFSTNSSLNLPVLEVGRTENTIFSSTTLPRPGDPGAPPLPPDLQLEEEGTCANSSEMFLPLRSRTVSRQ
# Variants of: B1
# Details: with bcl10_human BCL10, O95999
row,effect of a mutation on the interaction,Variant
1,disrupting interaction,L65A
